Measurements reported in US8748182B2, “Mutant proteins and methods for producing them” (Heptares Therapeutics Limited, priority 2007, dated 2014).
Substitutions are numbered along the chain they refer to. In names and notes the source's numbering stands.

B1: 1116A: NTR point mutant (Ile 116) (protein, UniProt P20789 1-424, looked up, variant I116A)
Neurotensin receptor type 1: MHLNSSVPQGTPGEPDAQPFSGPQSEMEATFLALSLSNGSGNTSESDTAGPNSDLDVNTDIYSKVLVTAIYLALFVVGTVGNSVTAFTLARKKSLQSLQSTVHYHLGSLALSDLLALLLAMPVELYNFIWVHHPWAFGDAGCRGYYFLRDACTYATALNVASLSVERYLAICHPFKAKTLMSRSRTKKFISAIWLASALLAIPMLFTMGLQNRSGDGTHPGGLVCTPIVDTATVKVVIQVNTFMSFLFPMLVISILNTVIANKLTVMVHQAAEQGRVCTVGTHNGLEHSTFNMTIEPGRVQALRHGVLVLRAVVIAFVVCWLPYHVRRLMFCYISDEQWTTFLFDFYHYFYMLTNALFYVSSAINPILYNLVSANFRQVFLSTLACLCPGWRHRRKKRPTFSRKPNSMSSNHAFSTSATRETLY
B2: M181A: NTR point mutant (protein, UniProt P20789 1-424, looked up, variant M181A)
Neurotensin receptor type 1: B1 Neurotensin receptor type 1 with A116I, M181A
B3: S108A: NTR point mutant (protein, UniProt P20789 1-424, looked up, variant S108A)
Neurotensin receptor type 1: B1 Neurotensin receptor type 1 with S108A, A116I
B4: S362A: NTR point mutant (protein, UniProt P20789 1-424, looked up, variant S362A)
Neurotensin receptor type 1: B1 Neurotensin receptor type 1 with A116I, S362A
B5: A356L: NTR point mutant (protein, UniProt P20789 1-424, looked up, variant A356L)
Neurotensin receptor type 1: B1 Neurotensin receptor type 1 with A116I, A356L
B6: D139A: NTR point mutant (protein, UniProt P20789 1-424, looked up, variant D139A)
Neurotensin receptor type 1: B1 Neurotensin receptor type 1 with A116I, D139A
B7: P399A: NTR point mutant (protein, UniProt P20789 1-424, looked up, variant P399A)
Neurotensin receptor type 1: B1 Neurotensin receptor type 1 with A116I, P399A
B8: L109A: NTR point mutant (protein, UniProt P20789 1-424, looked up, variant L109A)
Neurotensin receptor type 1: B1 Neurotensin receptor type 1 with L109A, A116I
B9: V268A: NTR point mutant (protein, UniProt P20789 1-424, looked up, variant V268A)
Neurotensin receptor type 1: B1 Neurotensin receptor type 1 with A116I, V268A
B10: F189A: NTR point mutant (protein, UniProt P20789 1-424, looked up, variant F189A)
Neurotensin receptor type 1: B1 Neurotensin receptor type 1 with A116I, F189A
B11: M293A: NTR point mutant (protein, UniProt P20789 1-424, looked up, variant M293A)
Neurotensin receptor type 1: B1 Neurotensin receptor type 1 with A116I, M293A
B12: H103A: NTR point mutant (protein, UniProt P20789 1-424, looked up, variant H103A)
Neurotensin receptor type 1: B1 Neurotensin receptor type 1 with H103A, A116I
B13: F358A: NTR point mutant (protein, UniProt P20789 1-424, looked up, variant F358A)
Neurotensin receptor type 1: B1 Neurotensin receptor type 1 with A116I, F358A
B14: R392A: NTR point mutant (protein, UniProt P20789 1-424, looked up, variant R392A)
Neurotensin receptor type 1: B1 Neurotensin receptor type 1 with A116I, R392A
B15: T179A: NTR point mutant (protein, UniProt P20789 1-424, looked up, variant T179A)
Neurotensin receptor type 1: B1 Neurotensin receptor type 1 with A116I, T179A
B16: K176A: NTR point mutant (protein, UniProt P20789 1-424, looked up, variant K176A)
Neurotensin receptor type 1: B1 Neurotensin receptor type 1 with A116I, K176A
B17: D113A: NTR point mutant (protein, UniProt P20789 1-424, looked up, variant D113A)
Neurotensin receptor type 1: B1 Neurotensin receptor type 1 with D113A, A116I
B18: F147A: NTR point mutant (protein, UniProt P20789 1-424, looked up, variant F147A)
Neurotensin receptor type 1: B1 Neurotensin receptor type 1 with A116I, F147A
B19: L205A: NTR point mutant (protein, UniProt P20789 1-424, looked up, variant L205A)
Neurotensin receptor type 1: B1 Neurotensin receptor type 1 with A116I, L205A
B20: A120L: NTR point mutant (protein, UniProt P20789 1-424, looked up, variant A120L)
Neurotensin receptor type 1: B1 Neurotensin receptor type 1 with A116I, A120L
B21: L111A: NTR point mutant (protein, UniProt P20789 1-424, looked up, variant L111A)
Neurotensin receptor type 1: B1 Neurotensin receptor type 1 with L111A, A116I
B22: A155L: NTR point mutant (protein, UniProt P20789 1-424, looked up, variant A155L)
Neurotensin receptor type 1: B1 Neurotensin receptor type 1 with A116I, A155L
B23: A90L: NTR point mutant (protein, UniProt P20789 1-424, looked up, variant A90L)
Neurotensin receptor type 1: B1 Neurotensin receptor type 1 with A90L, A116I
B24: L256A: NTR point mutant (protein, UniProt P20789 1-424, looked up, variant L256A)
Neurotensin receptor type 1: B1 Neurotensin receptor type 1 with A116I, L256A
B25: S100A: NTR point mutant (protein, UniProt P20789 1-424, looked up, variant S100A)
Neurotensin receptor type 1: B1 Neurotensin receptor type 1 with S100A, A116I
B26: S182A: NTR point mutant (protein, UniProt P20789 1-424, looked up, variant S182A)
Neurotensin receptor type 1: B1 Neurotensin receptor type 1 with A116I, S182A
B27: L72A: NTR point mutant (protein, UniProt P20789 1-424, looked up, variant L72A)
Neurotensin receptor type 1: B1 Neurotensin receptor type 1 with L72A, A116I
B28: D345A: NTR point mutant (protein, UniProt P20789 1-424, looked up, variant D345A)
Neurotensin receptor type 1: B1 Neurotensin receptor type 1 with A116I, D345A
B29: G209A: NTR point mutant (protein, UniProt P20789 1-424, looked up, variant G209A)
Neurotensin receptor type 1: B1 Neurotensin receptor type 1 with A116I, G209A
B30: T207A: NTR point mutant (protein, UniProt P20789 1-424, looked up, variant T207A)
Neurotensin receptor type 1: B1 Neurotensin receptor type 1 with A116I, T207A
B31: W391A: NTR point mutant (protein, UniProt P20789 1-424, looked up, variant W391A)
Neurotensin receptor type 1: B1 Neurotensin receptor type 1 with A116I, W391A
B32: Y351A: NTR point mutant (protein, UniProt P20789 1-424, looked up, variant Y351A)
Neurotensin receptor type 1: B1 Neurotensin receptor type 1 with A116I, Y351A
B33: N262A: NTR point mutant (protein, UniProt P20789 1-424, looked up, variant N262A)
Neurotensin receptor type 1: B1 Neurotensin receptor type 1 with A116I, N262A

Assay: Thermostability of neurotensin receptor (NTR) mutants (3H-neurotensin binding)
Type: physicochemical
Details: for thermostability, 3H-neurotensin (agonist) binding after the heating step: heated in the absence of the agonist; for thermostability, heated in the presence of 3H-neurotensin: Ligand(+) format
Method: FIG. 12 Flow chart showing the two different assay formats of ligand (+) and ligand (−) used to determine receptor thermostablity.
3. Mutants tested for thermostability by heating in the absence of the agonist were re-tested using a slightly different assay where the mutants were heated in the presence of ^3H-neurotensin (Ligand(+) format in FIG. 12). […] All of these also have increased thermostability. • 5. Preferred combinations are • a. Nag7m F358A+A86L+1260A+F342A Tm 51° C. (neurotensin bound) • b. Nag7n F358A+H103A+1260A+F342A Tm 51° C. (neurotensin bound) • Wildtype NTR has a Tm of 35° C. with neurotensin bound.

| Molecule | thermostability, 3H-neurotensin (agonist) binding after the heating step | thermostability, heated in the presence of 3H-neurotensin |
| --- | --- | --- |
| B1 | small but significant increase in thermostability | – |
| B2 | small but significant increase in thermostability | – |
| B3 | small but significant increase in thermostability | – |
| B4 | small but significant increase in thermostability | improved thermostability |
| B5 | small but significant increase in thermostability | – |
| B6 | small but significant increase in thermostability | – |
| B7 | small but significant increase in thermostability | – |
| B8 | small but significant increase in thermostability | – |
| B9 | small but significant increase in thermostability | – |
| B10 | small but significant increase in thermostability | – |
| B11 | small but significant increase in thermostability | – |
| B12 | small but significant increase in thermostability | improved thermostability |
| B13 | small but significant increase in thermostability | improved thermostability |
| B14 | small but significant increase in thermostability | – |
| B15 | small but significant increase in thermostability | – |
| B16 | small but significant increase in thermostability | – |
| B17 | small but significant increase in thermostability | – |

| Molecule | thermostability, 3H-neurotensin (agonist) binding after the heating step | thermostability, heated in the presence of 3H-neurotensin |
| --- | --- | --- |
| B18 | small but significant increase in thermostability | – |
| B19 | small but significant increase in thermostability | – |
| B20 | small but significant increase in thermostability | – |
| B21 | small but significant increase in thermostability | – |
| B22 | small but significant increase in thermostability | – |
| B23 | small but significant increase in thermostability | improved thermostability |
| B24 | small but significant increase in thermostability | – |
| B25 | small but significant increase in thermostability | – |
| B26 | small but significant increase in thermostability | – |
| B27 | small but significant increase in thermostability | – |
| B28 | small but significant increase in thermostability | – |
| B29 | small but significant increase in thermostability | – |
| B30 | small but significant increase in thermostability | – |
| B31 | small but significant increase in thermostability | – |
| B32 | small but significant increase in thermostability | – |
| B33 | small but significant increase in thermostability | – |
